Experiment: soluble on expression in E. coli; label from the status in PepcDB or PDB records

Sequence	soluble on expression in E. coli
MGSDKIHHHHHHMPRQLPPLYALRAFEAAARLSSFTRAGEELSITQSAISRHIRTLEEHFACRLFVRSGRSLQLTEAGRVLLPGVREGFAAFERACETLCGEDDILRMKAPSTLTMRWLLACLSRFRHLQPGNEVQLTSAWMDVDHVDFNQEPFDCAVLLSDGVFPPEWEVRKLFPELLIPVGAPDLLDEEPWDVCRLASVELLHPTVDKRDWREWLERMGLGDQVSLKGGQVFDTLELGMIAAARGYGISMGDLLMVAEDVAQKRLSLPWPTAVPSGMDYYLVWPRTRRGGERLRRLSAFLEGEVAAMDLPDVEILPRL	not soluble
GMLKILATQFNGKLQTLTKQEDELFDVVRLLAQALVGQGKVYLDAYGEFEGLYPMLSDGPDQMKRVTKIKDHKTLHAVDRVLIFTPDTERSDLLASLARYDAWHTPYSIITLGDVTETLERSIAPLALKFDKGLLPAEDGSRHGLPSLALGAFLLTHILTQLQEMTEEWE	soluble
MGSDKIHHHHHHMAQNIYDQPDFFAGYSQLGRSIEGLDGAAEWPALRAMLPEVGGLRIVDLGCGFGWFCRWAHEHGASYVLGLDLSEKMLARARAAGPDTGITYERADLDKLHLPQDSFDLAYSSLALHYVEDVARLFRTVHQALSPGGHFVFSTEHPIYMAPARPGWAIDAEGRRTWPIDRYLVEGPRKTDWLAKGVVKHHRTVGTTLNALIRSGFAIEHVEEFCPTDAQITARPELAEELDRPMFLLVSARR	not soluble
SNANEAQQYYLDADEAEAWIGEQELYVISDEIPKDEEGAIVMLKRHLRQQRAVEDYGRNIKQLASRAQGLLSAGHPEGEQIIRLQGQVDKHYAGLKDVACERKRKLENMYHLFQLKRETDDLEQWISEKELVASSPEMGQDFDHVTLLRDKFRDFARETGAIGQERVDNVNAFIERLIDAGHSEAATIAEWKDGLNEMWADLLELIDTRMQLLAASYDLHRYFYTGAEILGLIDEKHRELPEDVGLDASTAESFHRVHTAFERDVHLLGVQVQQFQDVATRLQTAYAGEKAEAIQNKEQEVSAAWQALLDACAGRRTQLVDTADKF	soluble
MGSDKIHHHHHHMTRKQFETLDLDNLEQNLQQAAELIAGRIRAIACDPVKQNISFEELAAIIPCDLPDEGHGPEAVIGEVARHIEPYSTRIGHPRFLAWITTSPGPAGTIGDMLCTGLNQAPLSFKGGPAATVLEEIVLGWFAGMFGMPEGWGGTIVSGGTMANLMGLTVARRVHAPQVHARGMQGLERPLVLYVSDQGHMSVTRSAVLLGIGEDNVRAVPSDSACRMIPHELEKAVQQDRRAGRLPFCVVAQAGSVTTGAVDPLPDIAAICRRENMWMHVDAAYGGAVMLADELRPLLAGIELADSVCVDPHKWFFVPLECGITLFRSREQQLETFRAKAAYLGAENPHDLKNTTFILSRANRALKVWFAFRSYGRLRIARIIRRNMELARQLYRLMCDHPEWEPLAPAPLSIVCGRYTPSAAVRGGWTEQQIDDLQLQMIEELERSGTALLTPAAVNGRAGVRVCIANHRTTPEDITLIFNTLTAIGTRIARPDEHETAGE	not soluble
GAKPNQKVIAEILKYPSPGKNPEAKVVKVLGDLDDPSIDLPSVIVKHDLPEPGEFPEEVIREANAIPARVRKKDLVGRKDLRDKVIVTIDGEDAKDFDDAISVEKLPNGNYLLGVHIADVSHYVKEGSALDQEAFKRGTSVYLIDTVIPMLPFRLSNGICSLVEGKDRLTMSVEMEIDRDGRVVRYDVYPSVIKSKKRMIYERVNEFLEDPSSMKEYEPFKDLIYNAVELAEILREARRKRGAILDIESDEVKVILDENGQVVDIVPRKRGIAEKLIEEFMIRANETVAEIFDHAGLPFMYRVHEEPDPETIFQLKNYLEAMGIRAKFSHKIHPGMLQKLLEKVKDHPLRSSVERLLVRSMKRAMY	soluble
DRCRYTLCCDGALKAVSACLHESESCLVPGDCCRGKSRLTLCSYGEGGNGFQCPTGYRQC	soluble
MPKPSVGINGFGRIGRLVLRAAVEKDSVNVVAVNDPFISIDYMVYLFQYDSTHGRFKGTVAHEGDYLLVAKEGKSQHKIKVYNSRDPAEIQWGASGADYVVESTGVFTTIEKANAHLKGGAKKVIISAPSADAPMFVVGVNHEKYDHANDHIISNASCTTNCLAPLAKVINDNFGIIEGLMTTVHAVTATQKTVDGPSGKLWRDGRGAGQNIIPASTGAAKAVGKVIPELNGKLTGMAFRVPTPDVSVVDLTARLEKPASLDDIKKVIKAAADGPMKGILAYTEDQVVSTDFVSDTNSSIFDAGASISLNPHFVKLVSWYDNEFGYSNRVVDLISYIATKA	not soluble
MGSDKIHHHHHHMTEIYEKYAHAAERMLHFVETRTTDQASSTMRVPVADYLDQGRFDLEIDRIFKRLPLMLALTIELPEVNDYKAMDVMGLPVLITRGRDGKARAFLNVCKHRAMHLAKEGKGNCKAFACQYHGWTYANDGKLMGIAEASTFGDVDRSTLNMTELPCDEAAGLIFVILTPGLPINAVEWMGGMYEDFAALKLETWYYHKSKAMKGANWKVAYDGYLEGYHFQAAHTNTVATRSPSNRASYEGFGPHIRLGFPQNTITRLHELPRDEWGRQENKGYDFIRMLFPNMSFFLAPEMGQLAQLFPGPQANQNTTVMNYIFPVKPETEEGLAALDQMCDFFFDVVEEEDYFLGLKVQNGLESGAMTHQTFGRNEPGNQFFHKWVAYYLDESGQTPMPVMKE	not soluble
SLGELFAVFNEKLTIPEQEALMFLYAYMPTGDVTDYTGDYYLENVRLSDQARREMPWGKEIPDDVFRHFVLPIRVNNENLDDSRRVFYNELKDRVKNLSLHDAVLEVNHWCHEKVIYTPSDARTSAPLASVKTAYGRCGEESTFTVAALRSVGIPARQVYTPRWAHTDDNHAWVEAWVDGKWYFFGACEPEPVLNLGWFNAPASRGMLMHTKVFGRYTGQEEIMYETPNYTEINVIDNYAPTAKGSVLVTDAEGQPVADATVEFKVYNYAEFYTVATKHTDRSGHASLTAGKGDMLVWASKDGRFGYSKLSFGKDNELKITLDKNASETYSLPLDIVPPAEGANLPEVTPEQRTENDRRMAQEDSIRNAYVATFITEEQARTFAKENKLDETETVRLLIASRGNHQTLTDFLSDAVKADKAGQAISLLKVVSAKDLRDVSPEVLNDHLNNSGLPASEDFCSNVLNPRVANEMITPYKAFFRKEIPASEAEAFRKNPQALVEWCKKEITINNELNSQRIPMSPMGVWKARVADEKSRNIFFVSMARSLGIPAWIDEVTGKIQYRTFNDNNLKNGKVYDVDFEAAQQTQAPTGTLVARYRPIPSLSDPKYYSHFTLSKFRNGTFQLLNYDEGDVDMGGGATWSNLLKNGARLDTGYYMMVTGTRMASGAVLANVTFFTIEEGKTTTVDLVMRESKDQVQVIGNFNSESTYLPIGTSEPQSILQTCGRGYYVVAVLGAGQEPTNHALRDIAALSGEFEKWGRKMVLLFPSEEQYKKFRPSEFPGLPSTITYGIDVDGAIQKQIAESMKLPNSTILPMFIIGDTFNRVVFVSQGYTIGLGEQLMKVIHGEG	soluble
MKYLAGIVTFNPNIERLDQNIRAIYPQVSHIYIVDNGSKNKEEISQLVADYNEEGHLTVDYLTENKGIAYALNCIGQFAVAQEFDWFLTLDQDSVVLGDLIDNYENYLHLPKVGMLSCLYQDMNRENLVMQEFDYKEIEECITSAALMKTSVFEETSGFAEEMFIDFVDSEMNYRLSEMGYKTYQVNFIGLLHEIGHSSRVKKFGHVFHVLNHSPFRKYYMIRNAIYIIKKYGKKKRYKYLVFMRNEFVRVLVAEEQKSKKIVAMIKGLKDGLLMKVDKYGKLEHHHHHH	soluble
MTPLERYQADLKRPDFFHDSAQENAVRHLQRLYEDLVAAHDSKPGLFGKLFGKKEPTLVKGLYFWGGVGRGKTYLVDTFFEALPFQDKVRTHFHRFMKRVHEEMKTLKGERNPLTIIAKRFSDEARVICFDEFFVSDITDAMILGTLMEELFKNGVTLVATSNIVPDGLYKDGLQRARFLPAIALIKQNTDIVNVDSGVDYRLRHLEQAELFHFPLNDAAQESMRKSFKALTPDCAETVENDVLMIENREIRALRTCDDVAWFDFRELCDGPRSQNDYIELGKIFHAVLLSGVEQMDVSTDDIARRFINMVDEFYDRNVKLIISAEVELKDLYTGGRLMFEFQRTLSRLLEMQSHEFLSRAHRP	not soluble
MGSDKIHHHHHHMNQSETDMIERIFTATDALMATVGLPNLSMHKIAREAKISPGTIYIYFKNKEELLTQFARYIFQNFQDVLKEGYDERQPFFQQYRKMWWNIWHFLEAEPTIMANMGQYESLPGFSDICQKWESDSIWYHFCVKAKAAGELADVPPPILFAISLESAFNIAFKCRHFCAQVSMEMLEAVIERTWLAIKN	not soluble
GMSMPNHPNLTTADAKKILNKFNCLDIAPILKPSEKESVRRALILITKLSDYQILGICADTADEGLLAMKTYSHALGYEVPIDLPVVEGPVYIKLNGKNGLCYLDSYAGHHRGVLVSCQSYYEGGINEMYGHLPLDLFV	soluble
MALHVDYTAERAFARIIGGLRSARLDAGLSQNALAAGMPVRGRAISEWETRAVEPTLGHLIQWARELGRRLVIVGRDGELRVGPVRQRPGETFEIFERRRLAVPLRNRRLALGMAQGELGALVGVSRDSIQRWELVRVPPRPIAHVVWAQKLGCSLDILVVPDGARRVRRTGFAPAGLAGSTLERPGLRVQRLGL	not soluble
GPGSMGRERMASSWRMPVYRSWQCSTPWSVSLPHPGPALPTLLVRHVCTPVSVCLYTNLSYCSLHAHNSIERLPPPLHAFVPTTHTHTHKHTYICIYACHSPLLRVSTWTKAFCLILRSRTLSTMSTKYLAAYALASLSKASPSQADVEAICKAVHIDVDQATLAFVMESVTGRDVATLIAEGAAKMSAMPAASSGAAAGVTASAAGDAAPAAAAAKKDEPEEEADDDMGFGLFD	not soluble
MSLDLETDVVAGTAERKGSAEGKVEIEDRHVTKVSLPVQVVTGDENTLCYYTAIFDGHDGSSCAQYATVNLHKNLISLYRQIYSTVQRRKFLSVGLEALVKATAKSFFMTDHNFLDSARKSGVEQDAGSTACVVLLFGPDDDGQLKLLTAHAGDTRAVLCRDDRALRLTEDHRPNHKLEQRRVQQNGGEVMNIEGVWRVIFVDRKTNRLFGLATSRALGDRRMKVPKKLVTCQPTLHVYAINFETDLFLVLASDGIWDVLSDEEVVAIVSEHLDKPPQEAARFVIDEAVKRGSEDDKTCTVLFFKWRRDRFPSEGHHHHHH	soluble
MFGLPMYNVWRAEQAGKAEFSKAEQNRRIKIEEAKANLEAEKLNAKAEIERAKGAAEAIRIENNSLTPTYIQYLWVRQQGSLNDKTVIYIPTEANLPLLEAGRTAGGLKRAECPTE	not soluble
MGSDKIHHHHHHMINRYLGDPPFESPERRNRLPERHKVKAGFSPTIDCAVLIAAAEKGFAADEGIELELFREQSARAVLAALGGDDIHIGHLPAPVPVGSAVGLDDLPADIVGVFTLSLGGSATAVSHGFYDELYREGMKLPDPAAFGRAMARVCAARRAAGKNPPVFAVEDIVSTPFYTLRYLLGSCGVLLGRDMEIIEALPKAMPALLESGKVDALCTAEPAGSAVVLGGAGRIVTTGALIWHNAPEKILAVKKGWAEENATLLEGLLRALYRAGEWCANDANIEELAGILAAPQYIDENGEFLLPALTGYISTSQRDMQRFQEFFVTSAKAANFPWQSQALWFFSQMLRWGEVPAERRLEPTMAEAARNAYRPDIFRKAMKPLFVPVPGANLKLEGTLKEPVHVGASRTGLVLGPDCFFDGRVFDPETLEMDDEI	not soluble
ELNKNFDAVVDTAIARWRRSGPVVAMTRPDLKHGRGGLRDFELIKALALGHLCNLPQLDAQHQLLLDARTLLHVHARRSRDVLDPEFAVDVAMDLGFVDRYHLGREIADAARAIDDGLTTALATARGILPRRTGFAFRNASRRPLDLDVVDANGTIELSKKPDLNDPALPLRVAAAAATTGLPVAESTWVRLNECPPLPEP	not soluble

Source: the DeepSol protein solubility set
